The values below come from patent US12624112 (MABWELL SHANGHAI BIOSCIENCE, dated 2026).

For test [1], the target named is T1, ST2 on KU812 cells (UniProt Q01638 19-556, limits assumed).
T1 sequence (looked up): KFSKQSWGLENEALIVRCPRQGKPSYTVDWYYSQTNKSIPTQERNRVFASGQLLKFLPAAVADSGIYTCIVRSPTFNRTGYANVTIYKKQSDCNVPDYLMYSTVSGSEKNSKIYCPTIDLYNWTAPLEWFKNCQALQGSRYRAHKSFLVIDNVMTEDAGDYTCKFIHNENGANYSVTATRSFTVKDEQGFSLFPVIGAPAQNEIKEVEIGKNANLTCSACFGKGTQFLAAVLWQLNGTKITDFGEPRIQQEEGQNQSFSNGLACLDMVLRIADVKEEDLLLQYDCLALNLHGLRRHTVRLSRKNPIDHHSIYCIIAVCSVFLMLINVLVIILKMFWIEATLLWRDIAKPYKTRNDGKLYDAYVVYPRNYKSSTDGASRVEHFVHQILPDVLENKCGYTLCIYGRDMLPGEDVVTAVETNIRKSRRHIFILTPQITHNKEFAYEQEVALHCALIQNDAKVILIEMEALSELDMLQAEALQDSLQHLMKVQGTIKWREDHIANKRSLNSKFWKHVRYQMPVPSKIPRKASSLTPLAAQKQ
As to the kind of experiment: cell-based or functional assay.

Test [2] addresses T1, ST2 on KU812 cells. In words: cell-based or functional assay. This is another data set of the same source.
Test [3] addresses T2, Cyno ST2-fc (cyno; human, UniProt A0A2K5UDB8 19-331).
T2 construct: also called cyno ST2 fused with a human IgG1 Fc tag at the C-terminus
T2 sequence: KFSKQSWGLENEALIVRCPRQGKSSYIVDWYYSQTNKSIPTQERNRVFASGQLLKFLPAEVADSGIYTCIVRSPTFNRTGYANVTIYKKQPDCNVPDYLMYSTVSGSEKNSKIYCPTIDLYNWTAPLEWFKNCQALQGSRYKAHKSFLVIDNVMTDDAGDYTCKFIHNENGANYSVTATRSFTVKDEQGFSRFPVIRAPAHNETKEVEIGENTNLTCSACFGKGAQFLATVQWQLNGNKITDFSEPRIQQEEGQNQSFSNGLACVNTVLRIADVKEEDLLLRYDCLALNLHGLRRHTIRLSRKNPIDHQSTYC
In words: ELISA, coated cyno ST2-fc. The protocol: Cyno ST2-fc was diluted with a coating buffer to 1 μg/mL, added into 96-well plates at 50 μL/well and coated overnight at 4° C. Next day, the coated plates were taken, washed with PB ST for 3 times, and then incubated using a blocking buffer at room temperature for 1 hr. Subsequently, the plates were washed with PBST for 3 times again. Starting at 1000 ng/mL, each murine antibody was diluted 3-fold to obtain serial dilutions of 8 concentrations in total which were then added into the 96-well plates at 50 μL/well. The plates were incubated at room temperature for 1 hr, washed with PB ST for 3 times; and then a goat anti-mouse secondary antibody (1:10000) was added at 50 μL/well into the 96-well plates which subsequently were incubated at room temperature for 1 hr. The 96-well plates were washed with PB ST for 3 times, and TMB was added at 50 μL/well to develop color in dark for 10 min. Afterwards, 2 M sulfuric acid was added to stop reaction; and GD values at 450 nm were read by a microplate reader. It can be seen that the murine antibodies can bind to cyno ST2, with a binding trendency consistent with the binding to human ST2.
A general note: An ELISA detects its analyte on a solid surface through an enzyme-linked reagent.

Test [4] deals with T3, Human ST2-his (human, UniProt Q01638 19-328).
T3 construct: Expressed in CHO-K1; also called human ST2 fused with a 6-histidine tag at the C-terminus
T3 sequence: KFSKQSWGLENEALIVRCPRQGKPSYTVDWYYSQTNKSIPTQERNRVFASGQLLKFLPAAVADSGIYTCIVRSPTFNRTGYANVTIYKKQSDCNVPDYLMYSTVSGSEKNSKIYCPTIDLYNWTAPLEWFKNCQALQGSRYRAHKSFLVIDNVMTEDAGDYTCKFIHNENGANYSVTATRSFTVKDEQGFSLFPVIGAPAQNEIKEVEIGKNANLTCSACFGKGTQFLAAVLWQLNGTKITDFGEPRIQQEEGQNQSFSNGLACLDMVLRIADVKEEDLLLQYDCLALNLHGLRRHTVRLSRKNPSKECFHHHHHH
In words: ELISA, coated human ST2-his. The protocol: Human ST2-his was diluted with a coating buffer to 1 μg/mL, added into plates at 50 μL/well, and coated overnight at 4° C. Next day, the coated plates were taken, washed with PBST for 3 times, and then incubated using a blocking buffer at room temperature for 1 hr. Subsequently, the plates were washed with PBST for 3 times again. Starting at 100 ng/mL, each murine antibody was diluted 3-fold to obtain serial dilutions of 8 concentrations in total which were then added into the 96-well plates at 50 μL/well. The plates were incubated at room temperature for 1 hr, washed with PBST for 3 times; and then a goat anti-mouse secondary antibody (1:10000) was added at 50 μL/well into the 96-well plates which subsequently were incubated at room temperature for 1 hr. The 96-well plates were washed with PBST for 3 times, and TMVB was added at 50 μL/well to develop color in dark for 10 min. Afterwards, 2 M sulfuric acid was added to stop reaction; and GD values at 450 nm were read by a micro-plate reader.

Test [5] has as its target Human ST2-fc (human) (UniProt Q01638). As to the kind of experiment: competition ELISA, coated ST2-fc, competitor IL33-his.
Test [6] deals with T2, Cyno ST2-fc. As to the kind of experiment: SPR Biacore X100, antibody on CM5, cyno ST2-fc analyte. On the procedure: The experiment on the interactions between the anti-human ST2 antibodies and cyno ST2-fc was performed using Biacore X100, and was carried out at 25° C. in HBS-EP (1×) buffer (pH 7.4). Each antibody was immobilized on the surface of CM5 chip using an amino coupling kit. Following the antibody immobilization, a solution of cyno ST2-fc (2-fold gradient dilution from a starting concentration of 8 nM, to obtain 6 concentrations in total; the starting concentration might be increased if the signal of some sample was too low) was injected. Association was monitored for 2 min and dissociation for 10 min, and the sensor surface was regenerated by injecting a solution of glycine at pH 1.5.

Test [7] deals with T3, Human ST2-his. In words: SPR Biacore X100, antibody on protein A, ST2-his analyte. The protocol:
On the basis of the results of the quantitative screenings of murine antibodies above together, 19 murine antibodies were selected for affinity determination and in vitro pharmacological study. The experiment on the interaction between the anti-human ST2 antibodies and human ST2-his was performed using Biacore X100, and was carried out at 25° C. in HBS-EP (1×) buffer (pH 7.4).
Each anti-human ST2 antibody was diluted to 10 nM and captured on the surface of a protein A chip (for a capture time of 60 s). […] Association was monitored for 4 min and dissociation for 10 min, and the sensor surface was regenerated by injecting a solution of glycine at pH 2.0. Data generated for kinetics and affinity assay were analyzed using BIAevaluation software.
Background: Surface plasmon resonance follows binding to a sensor surface in real time, without labels.

B1: 5888-379H1+L2 (antibody, V domains shown)
VH: QIQLAQSGPELKKPGETVKISCKASGYTFINYGMNWVKQAPGKDLKWMGWINTYIGEPTYGDNFKGRFAFSLETSASTVYLQINNLKNEDTATYFCAREGDGFAYWGQGTLVTVSA
VL: DIVMTQSPPSLSVSVGEKVTMSCKSSQSLLYSGNQNNYLAWYQQKPGQPPKLLIYGASTRESGVPDRFTGSGSGTDFTLTISSVQAEDLAVYYCQNDHSYPYTFGGGTKLEIK
notes: murine antibody
By EC50 is commonly meant the midpoint of the concentration-response curve. Broadly, the IC50 is the point on the concentration scale where inhibition reaches its midpoint. A low value points to inhibition by little substance. The term Kd denotes the free concentration of one partner at which half of the binding sites on the other are occupied at equilibrium, for simple one-to-one binding. Higher therefore signals lower affinity. The koff is a measure of how fast the partners let go of each other. High values mean fast dissociation, low ones slow dissociation. The kon is the second-order rate constant of association. Higher therefore signals faster complex formation. For B1, in test [1], the “IC50, activation of KU812-NF-κB reporter gene by IL33” value was 0.391 µg/mL and the “Relative activity (%) compared with CNTO7160, KU812-NF-κB reporter” value turned out to be 64.2%. For the same molecule, in test [2], the “Maximum inhibition rate (%), KU812 IL-5 production” value is 92.7% and the “Relative activity (%), KU812 IL-5 production” value was 19.2%. In addition, in test [3], the EC50 came to 0.0602 µg/mL and the “Relative activity (%)” value came to 40.6%. Besides, in test [4], the EC50 was 0.0295 µg/mL and the “Relative activity (%) compared with CNTO7160” value stood at 33.9%. Also, in test [5], the half-maximal inhibitory concentration (IC50) came to 0.83 µg/mL and the Relative activity (%) compared with CNTO7160 worked out at 70.1%. In test [6], the Kd came to 0.0317 nM, the koff was found to be 0.000152 s⁻¹ and the kon turned out to be 4.78e+06 M⁻¹ s⁻¹. Moreover, in test [7], the Kd was found to be 0.571 nM, the koff stood at 0.000546 s⁻¹ and the on-rate (kon) was found to be 957000 M⁻¹ s⁻¹.

B2: 5888-357H+L (antibody, V domains shown)
VH: QVQLQQSVTELVRPGASVTLSCKASGYRFTDSEMHWVKQTPVHGLEWIGTIDPETGGTVYNQKFKGKAKLTADRSSSTVSMELRSLTSEDSAVYYCTRAFYNDFDDGFAYWGQGTLVTVSA
VL: QIVMTQSPAIMSASPGEKVTLTCSASTSVSYMHWYQQKSGTSPKRWIYDTSKLASGVPARFSGSGSGTSYSLTISSMEAEDAATYYCQQWSSNPLTFGAGTKLELK
notes: murine antibody
Take B2: in test [1], the “IC50, activation of KU812-NF-κB reporter gene by IL33” value stood at 0.0552 µg/mL and the “Relative activity (%) compared with CNTO7160, KU812-NF-κB reporter” value amounted to 454%. Moreover, in test [2], the “Maximum inhibition rate (%), KU812 IL-5 production” value came to 71% and the “Relative activity (%), KU812 IL-5 production” value was determined as 98.5%. Also, in test [3], the EC50 was 0.0192 µg/mL and the “Relative activity (%)” value came out at 127%. Moreover, in test [4], it took 0.0113 µg/mL to reach a half-maximal effect (EC50) and the “Relative activity (%) compared with CNTO7160” value stood at 124%. In test [5], the IC50 worked out at 0.62 µg/mL and the Relative activity (%) compared with CNTO7160 is 94.7%. Further, in test [6], the Kd worked out at 0.129 nM, the koff was 0.000826 s⁻¹ and the kon was 6.41e+06 M⁻¹ s⁻¹. In test [7], this molecule gave an equilibrium dissociation constant (Kd) of 0.16 nM, a koff of 0.0007 s⁻¹ and a kon of 4.38e+06 M⁻¹ s⁻¹.
